What follows are sequences tested on Escherichia coli TOP10 (assay: shrunken log2 fold change of peptide-encoding DNA abundance (4.5 h post-induction vs induction); higher = less antimicrobial activity (less host growth inhibition)). Conditions: time post-induction: 4.5 h; library: site-saturation at positions 5, 18, 19, 20.
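Also: peptides expressed intracellularly from a pBAD plasmid library in pooled LB shake-flask culture, induced with 0.3% L-arabinose, DNA abundance read by NGS, three biological replicates, DESeq2 with apeglm shrinkage.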

Row | Sequence | shrunken log2 fold change
1 | RRIRERPPRLPRPRPRPPQYPRP | -0.517
2 | RRIRERPPRLPRPRPRPPREPRP | 0.87
3 | RRIRERPPRLPRPRPRPPRWPRP | 0.508
4 | RRIRERPPRLPRPRPRPPTNPRP | 0.0754
5 | RRIRERPPRLPRPRPRPPVLPRP | 0.127
6 | RRIRERPPRLPRPRPRPPVPPRP | 0.45
7 | RRIRERPPRLPRPRPRPPWPPRP | 0.408
8 | RRIRERPPRLPRPRPRPQAHPRP | -0.0188
9 | RRIRERPPRLPRPRPRPQCPPRP | -0.207
10 | RRIRERPPRLPRPRPRPQCYPRP | -0.186
11 | RRIRERPPRLPRPRPRPQESPRP | -0.239
12 | RRIRERPPRLPRPRPRPQFLPRP | -0.571
13 | RRIRERPPRLPRPRPRPQGEPRP | -0.0686
14 | RRIRERPPRLPRPRPRPQGPPRP | 0.0515
15 | RRIRERPPRLPRPRPRPQKNPRP | -0.49
16 | RRIRERPPRLPRPRPRPQMFPRP | 0.0221
17 | RRIRERPPRLPRPRPRPQNQPRP | -0.612
18 | RRIRERPPRLPRPRPRPQNWPRP | -0.0518
19 | RRIRERPPRLPRPRPRPQQIPRP | -0.384
20 | RRIRERPPRLPRPRPRPQQRPRP | 0.0285
21 | RRIRERPPRLPRPRPRPQQSPRP | -0.05
22 | RRIRERPPRLPRPRPRPQQVPRP | -0.0841

Row | Sequence | shrunken log2 fold change
23 | RRIRERPPRLPRPRPRPQRIPRP | -0.0866
24 | RRIRERPPRLPRPRPRPQRSPRP | -0.106
25 | RRIRERPPRLPRPRPRPQTQPRP | -0.0049
26 | RRIRERPPRLPRPRPRPQWAPRP | -0.0475
27 | RRIRERPPRLPRPRPRPRAAPRP | 0.448
28 | RRIRERPPRLPRPRPRPRDVPRP | 0.0772
29 | RRIRERPPRLPRPRPRPREEPRP | -0.00173
30 | RRIRERPPRLPRPRPRPREVPRP | 0.13
31 | RRIRERPPRLPRPRPRPRFDPRP | 1.26
32 | RRIRERPPRLPRPRPRPRFRPRP | 0.0352
33 | RRIRERPPRLPRPRPRPRHDPRP | -0.328
34 | RRIRERPPRLPRPRPRPRIHPRP | -0.737
35 | RRIRERPPRLPRPRPRPRIPPRP | -0.269
36 | RRIRERPPRLPRPRPRPRMRPRP | 0.506
37 | RRIRERPPRLPRPRPRPRMWPRP | 0.302
38 | RRIRERPPRLPRPRPRPRNEPRP | -0.473
39 | RRIRERPPRLPRPRPRPRPHPRP | 0.791
40 | RRIRERPPRLPRPRPRPRQAPRP | 0.0291
41 | RRIRERPPRLPRPRPRPRSAPRP | 0.25
42 | RRIRERPPRLPRPRPRPRVWPRP | 0.387
43 | RRIRERPPRLPRPRPRPRWSPRP | -0.078
44 | RRIRERPPRLPRPRPRPRWTPRP | 0.0925

Row | Sequence | shrunken log2 fold change
45 | RRIRERPPRLPRPRPRPSELPRP | 0.0285
46 | RRIRERPPRLPRPRPRPSEQPRP | -0.0297
47 | RRIRERPPRLPRPRPRPSFQPRP | -0.0708
48 | RRIRERPPRLPRPRPRPSHMPRP | -0.431
49 | RRIRERPPRLPRPRPRPSHRPRP | -0.0834
50 | RRIRERPPRLPRPRPRPSIKPRP | -0.755
51 | RRIRERPPRLPRPRPRPSIPPRP | -0.758
52 | RRIRERPPRLPRPRPRPSKGPRP | -0.35
53 | RRIRERPPRLPRPRPRPSKKPRP | -0.645
54 | RRIRERPPRLPRPRPRPSLMPRP | -0.459
55 | RRIRERPPRLPRPRPRPSNAPRP | -0.086
56 | RRIRERPPRLPRPRPRPSNMPRP | -0.683
57 | RRIRERPPRLPRPRPRPSPCPRP | -0.229
58 | RRIRERPPRLPRPRPRPSRFPRP | 0.17
59 | RRIRERPPRLPRPRPRPSRPPRP | 0.168
60 | RRIRERPPRLPRPRPRPSSAPRP | 0.0581
61 | RRIRERPPRLPRPRPRPSSSPRP | 0.307
62 | RRIRERPPRLPRPRPRPSTIPRP | -0.551
63 | RRIRERPPRLPRPRPRPSTPPRP | -0.28
64 | RRIRERPPRLPRPRPRPSVGPRP | 0.0861
65 | RRIRERPPRLPRPRPRPSWCPRP | -0.0728
66 | RRIRERPPRLPRPRPRPSWHPRP | -0.215

Row | Sequence | shrunken log2 fold change
67 | RRIRERPPRLPRPRPRPSWNPRP | -0.701
68 | RRIRERPPRLPRPRPRPSYFPRP | -0.48
69 | RRIRERPPRLPRPRPRPSYNPRP | -0.924
70 | RRIRERPPRLPRPRPRPTAEPRP | 0.265
71 | RRIRERPPRLPRPRPRPTHEPRP | 0.317
72 | RRIRERPPRLPRPRPRPTHVPRP | 0.231
73 | RRIRERPPRLPRPRPRPTIFPRP | -0.0972
74 | RRIRERPPRLPRPRPRPTKNPRP | -0.187
75 | RRIRERPPRLPRPRPRPTLQPRP | 0.125
76 | RRIRERPPRLPRPRPRPTLWPRP | 0.364
77 | RRIRERPPRLPRPRPRPTMTPRP | -0.389
78 | RRIRERPPRLPRPRPRPTNHPRP | -0.472
79 | RRIRERPPRLPRPRPRPTPHPRP | 0.308
80 | RRIRERPPRLPRPRPRPTPPPRP | 0.491
81 | RRIRERPPRLPRPRPRPTRCPRP | -0.0341
82 | RRIRERPPRLPRPRPRPTRFPRP | 0.169
83 | RRIRERPPRLPRPRPRPTRSPRP | -0.196
84 | RRIRERPPRLPRPRPRPTTTPRP | -0.0224
85 | RRIRERPPRLPRPRPRPTYAPRP | -0.0017
86 | RRIRERPPRLPRPRPRPVCTPRP | -0.147
87 | RRIRERPPRLPRPRPRPVDRPRP | 0.0364
88 | RRIRERPPRLPRPRPRPVFWPRP | 0.39

Row | Sequence | shrunken log2 fold change
89 | RRIRERPPRLPRPRPRPVGTPRP | 0.0306
90 | RRIRERPPRLPRPRPRPVHNPRP | -1.53
91 | RRIRERPPRLPRPRPRPVIFPRP | -0.392
92 | RRIRERPPRLPRPRPRPVKAPRP | -0.0316
93 | RRIRERPPRLPRPRPRPVKFPRP | -0.02
94 | RRIRERPPRLPRPRPRPVKWPRP | -0.129
95 | RRIRERPPRLPRPRPRPVLHPRP | -0.0594
96 | RRIRERPPRLPRPRPRPVMVPRP | 0.204
97 | RRIRERPPRLPRPRPRPVNLPRP | -0.441
98 | RRIRERPPRLPRPRPRPVPMPRP | -0.041
99 | RRIRERPPRLPRPRPRPVPNPRP | -0.14
100 | RRIRERPPRLPRPRPRPVRAPRP | 0.287
101 | RRIRERPPRLPRPRPRPVSMPRP | -0.295
102 | RRIRERPPRLPRPRPRPVTAPRP | -0.00991
103 | RRIRERPPRLPRPRPRPVTMPRP | -0.433
104 | RRIRERPPRLPRPRPRPVVGPRP | -0.106
105 | RRIRERPPRLPRPRPRPVWTPRP | -0.00115
106 | RRIRERPPRLPRPRPRPWAPPRP | -0.0362
107 | RRIRERPPRLPRPRPRPWCSPRP | -0.177
108 | RRIRERPPRLPRPRPRPWDEPRP | 0.0271
109 | RRIRERPPRLPRPRPRPWFFPRP | -0.358

From the supplement of paper PMC9112550, “Optimization of the antimicrobial peptide Bac7 by deep mutational scanning” (BMC Biology, 2022)
